In article PMC8244488 (Current Research in Structural Biology, 2021):
No end group written: not given here.

Columns and labels:
[1] = target: C-terminally truncated ARAP3 peptide (human); assay: fluorescence polarisation
[2] = target: T1, human Shank1 PDZ (652-765), GST tag removed (human, UniProt Q9Y566 652-765); assay: fluorescence polarisation
T1 sequence: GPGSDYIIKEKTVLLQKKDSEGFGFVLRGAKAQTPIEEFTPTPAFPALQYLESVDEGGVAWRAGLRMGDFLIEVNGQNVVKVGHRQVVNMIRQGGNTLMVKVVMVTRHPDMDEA

B1: human Shank1 PDZ (652-765), GST tag removed (domain or fragment)
chain: T1 sequence
Question: How did the fold change in affinity against ARAP3 (1414-1429) [1] turn out when B1 was run?
Answer: 2.5 fold

Question: Does FPELIQDTSTSFSTTR (also: FITC label, position not given here) [ARAP3_(1414-1429) peptide] bind [2]?
Answer: binds
